Values quoted from earlier work, collected in paper PMC7425896, “Polypeptides derived from α-Synuclein binding partners to prevent α-Synuclein fibrils interaction with and take-up by cells” (PLoS ONE, 2020).

Biological target: α-Synuclein fibrils (Homo sapiens) (UniProt P37840)
Test: sedimentation assay

- Kd: 100 nM
Substance: Hsc70 (from UniProt P11142)
